# Laboratory results published in patent US11433099B2, “Immunotherapy with B*08 restricted peptides and combination of peptides against cancers and related methods” (Immatics Biotechnologies GmbH, priority 2018, dated 2022).
# System: CD8+ T cells of healthy HLA-B*08 donors
# Assay: In vitro T-cell priming assay with aAPCs loaded with peptide/MHC complexes and anti-CD28 antibody, pMHC multimer readout
# Assay type: cell-based, human
# Conditions: Table 10A; in vitro immunogenicity, HLA-B*08 pMHC, healthy donors
# Text: In order to obtain information regarding the immunogenicity of the TUMAPs of the present invention, the inventors performed investigations using an in vitro T-cell priming assay based on repeated stimulations of CD8+ T cells with artificial antigen presenting cells (aAPCs) loaded with peptide/MHC complexes and anti-CD28 antibody.
# In order to perform in vitro stimulations by artificial antigen presenting cells loaded with peptide-MHC complex (pMHC) and anti-CD28 antibody, the inventors first isolated CD8+ T cells from fresh HLA-B*08 leukapheresis products via positive selection using CD8 microbeads (Miltenyi Biotec, Bergisch-Gladbach, Germany) of healthy donors obtained from the University clinics Mannheim, Germany, after informed consent.
# PBMCs and isolated CD8+ lymphocytes were incubated in T-cell medium (TCM) until use consisting of RPMI-Glutamax (Invitrogen, Karlsruhe, Germany) supplemented with 10% heat inactivated human AB serum (PAN-Biotech, Aidenbach, Germany), 100 U/ml Penicillin/100 μg/ml Streptomycin (Cambrex, Cologne, Germany), 1 mM sodium pyruvate (CC Pro, Oberdorla, Germany), 20 μg/ml Gentamycin (Cambrex). 2.5 ng/ml IL-7 (PromoCell, Heidelberg, Germany) and 10 U/ml IL-2 (Novartis Pharma, Nornberg, Germany) were also added to the TCM at this step.
# Generation of pMHC/anti-CD28 coated beads, T-cell stimulations and readout was performed in a highly defined in vitro system using four different pMHC molecules per stimulation condition and 8 different pMHC molecules per readout condition.
# The purified co-stimulatory mouse IgG2a anti human CD28 Ab 9.3 (Jung et al., 1987) was chemically biotinylated using Sulfo-N-hydroxysuccinimidobiotin as recommended by the manufacturer (Perbio, Bonn, Germany). Beads used were 5.6 μm diameter streptavidin coated polystyrene particles (Bangs Laboratories, Illinois, USA).
# 800.000 beads/200 μl were coated in 96-well plates in the presence of 4×12.5 ng different biotin-pMHC, washed and 600 ng biotin anti-CD28 were added subsequently in a volume of 200 μl. Stimulations were initiated in 96-well plates by co-incubating 1×10^6 CD8+ T cells with 2×10^5 washed coated beads in 200 μl TCM supplemented with 5 ng/ml IL-12 (PromoCell) for 3 days at 37° C. Half of the medium was then exchanged by fresh TCM supplemented with 80 U/ml IL-2 and incubating was continued for 4 days at 37° C. This stimulation cycle was performed for a total of three times. For the pMHC multimer readout using 8 different pMHC molecules per condition, a two-dimensional combinatorial coding approach was used as previously described (Andersen et al., 2012) with minor modifications encompassing coupling to 5 different fluorochromes. Finally, multimeric analyses were performed by staining the cells with Live/dead near IR dye (Invitrogen, Karlsruhe, Germany), CD8-FITC antibody clone SK1 (BD, Heidelberg, Germany) and fluorescent pMHC multimers. For analysis, a BD LSRII SORP cytometer equipped with appropriate lasers and filters was used. Peptide specific cells were calculated as percentage of total CD8+ cells. Evaluation of multimeric analysis was done using the FlowJo software (Tree Star, Oregon, USA). In vitro priming of specific multimer+CD8+ lymphocytes was detected by comparing to negative control stimulations.
row,Substance,Wells positive [%]
1,278 (RAQLKLVAL; listed as Homo sapiens) [compound 278],+ (<20% = +)
2,283 (MAQFKEISL; listed as Homo sapiens) [compound 283],++++ (>=70% = ++++)
3,284 (ELKKKEYEEL; listed as Homo sapiens) [compound 284],+ (<20% = +)
4,285 (EAMLRNKEL; listed as Homo sapiens) [compound 285],+ (<20% = +)

# Molecular target: HLA-B*08:01 (Homo sapiens, UniProt P01889)
# Assay: MHC binding assay (UV-ligand exchange, beta2m ELISA)
# Conditions: MHC class I binding score; binding to HLA-B*08:01 ranged by peptide exchange yield (UV-ligand exchange, β2m ELISA)
# Text: Candidate peptides for T cell based therapies according to the present invention were further tested for their MHC binding capacity (affinity). The individual peptide-MHC complexes were produced by UV-ligand exchange, where a UV-sensitive peptide is cleaved upon UV-irradiation and exchanged with the peptide of interest as analyzed. Only peptide candidates that can effectively bind and stabilize the peptide-receptive MHC molecules prevent dissociation of the MHC complexes. To determine the yield of the exchange reaction, an ELISA was performed based on the detection of the light chain (β2m) of stabilized MHC complexes. The assay was performed as generally described in Rodenko et al. (Rodenko et al., 2006).
# 96 well MAXISorp plates (NUNC) were coated over night with 2 ug/ml streptavidin in PBS at room temperature, washed 4× and blocked for 1 h at 37° C. in 2% BSA containing blocking buffer. Refolded HLA-A*02:01/MLA-001 monomers served as standards, covering the range of 15-500 ng/ml. Peptide-MHC monomers of the UV-exchange reaction were diluted 100-fold in blocking buffer. Samples were incubated for 1 h at 37° C., washed four times, incubated with 2 ug/ml HRP conjugated anti-β2m for 1 h at 37° C., washed again and detected with TMB solution that is stopped with […]. Absorption was measured at 450 nm. Candidate peptides that show a high exchange yield (preferably higher than 50%, most preferred higher than 75%) are generally preferred for a generation and production of antibodies or fragments thereof, and/or T cell receptors or fragments thereof, as they show sufficient avidity to the MHC molecules and prevent dissociation of the MHC complexes.
row,Peptide exchange,Substance
1,++ (20% = ++),200 (VAAARAVPV; listed as Homo sapiens) [compound 200]
2,+++ (50% = +++),201 (TASAMQHVL; listed as Homo sapiens) [compound 201]
3,++ (20% = ++),202 (RIPEKASFL; listed as Homo sapiens) [compound 202]
4,++ (20% = ++),203 (DVYTQVSAF; listed as Homo sapiens) [compound 203]
5,++ (20% = ++),204 (MSPLLRSI; listed as Homo sapiens) [compound 204]
6,++ (20% = ++),205 (YMQYGFLSM; listed as Homo sapiens) [compound 205]
7,++ (20% = ++),206 (MEFPNKFNTL; listed as Homo sapiens) [compound 206]
8,++ (20% = ++),207 (LRKRKSPE; listed as Homo sapiens) [compound 207]
9,++ (20% = ++),208 (LPPPQPLSL; listed as Homo sapiens) [compound 208]
10,++ (20% = ++),209 (SRFGKFVQL; listed as Homo sapiens) [compound 209]
11,++ (20% = ++),210 (QPNTHQLL; listed as Homo sapiens) [compound 210]
12,++ (20% = ++),211 (DVISKGVSL; listed as Homo sapiens) [compound 211]
13,++ (20% = ++),212 (EEYKFPSL; listed as Homo sapiens) [compound 212]
14,++ (20% = ++),213 (FPSLFINQF; listed as Homo sapiens) [compound 213]
15,++ (20% = ++),214 (DAPRHRLL; listed as Homo sapiens) [compound 214]
16,++ (20% = ++),215 (NPLIEIISI; listed as Homo sapiens) [compound 215]
17,++ (20% = ++),216 (EARPPSPAV; listed as Homo sapiens) [compound 216]
18,++ (20% = ++),217 (ETIKGHSVRL; listed as Homo sapiens) [compound 217]
19,+++ (50% = +++),218 (DNHPRLVTL; listed as Homo sapiens) [compound 218]
20,++ (20% = ++),219 (VRNPKILIL; listed as Homo sapiens) [compound 219]
21,++ (20% = ++),220 (LAVRHLSL; listed as Homo sapiens) [compound 220]
22,+++ (50% = +++),221 (SLKEELLSL; listed as Homo sapiens) [compound 221]
23,++ (20% = ++),222 (AQKAELIAL; listed as Homo sapiens) [compound 222]
24,++ (20% = ++),223 (DVSARKLRV; listed as Homo sapiens) [compound 223]
25,++ (20% = ++),224 (LPYPPQKVV; listed as Homo sapiens) [compound 224]
26,+++ (50% = +++),225 (MPKRAHWGA; listed as Homo sapiens) [compound 225]

row,Peptide exchange,Substance
1,+++ (50% = +++),226 (DIYEVAVSL; listed as Homo sapiens) [compound 226]
2,++ (20% = ++),227 (SRFPGMSVL; listed as Homo sapiens) [compound 227]
3,+++ (50% = +++),228 (TLRAYVLAL; listed as Homo sapiens) [compound 228]
4,++ (20% = ++),229 (DTHTNTYYL; listed as Homo sapiens) [compound 229]
5,++ (20% = ++),230 (DVYFHHVL; listed as Homo sapiens) [compound 230]
6,++ (20% = ++),231 (GEKLLRPSL; listed as Homo sapiens) [compound 231]
7,++ (20% = ++),232 (KLYIHRVTL; listed as Homo sapiens) [compound 232]
8,++ (20% = ++),233 (DVKLVFVM; listed as Homo sapiens) [compound 233]
9,++ (20% = ++),234 (VFRVGISF; listed as Homo sapiens) [compound 234]
10,+++ (50% = +++),235 (SPNSLVTIL; listed as Homo sapiens) [compound 235]
11,++ (20% = ++),236 (STLKKSLEI; listed as Homo sapiens) [compound 236]
12,+++ (50% = +++),237 (LPLDSRYVTL; listed as Homo sapiens) [compound 237]
13,+++ (50% = +++),238 (IPLAIARL; listed as Homo sapiens) [compound 238]
14,++ (20% = ++),239 (SEPVMRVTL; listed as Homo sapiens) [compound 239]
15,++ (20% = ++),240 (KVIDRKVEL; listed as Homo sapiens) [compound 240]
16,++ (20% = ++),241 (NAYEAPSI; listed as Homo sapiens) [compound 241]
17,++ (20% = ++),242 (KPQSLQLVL; listed as Homo sapiens) [compound 242]
18,+++ (50% = +++),243 (EGVPPGTVL; listed as Homo sapiens) [compound 243]
19,++ (20% = ++),244 (HALPPYITVL; listed as Homo sapiens) [compound 244]
20,++ (20% = ++),245 (GPRGPSSGHPL; listed as Homo sapiens) [compound 245]
21,++ (20% = ++),246 (RLLQKSKEL; listed as Homo sapiens) [compound 246]
22,++ (20% = ++),247 (TPEPSVHAL; listed as Homo sapiens) [compound 247]
23,++ (20% = ++),248 (SEVNKHETAL; listed as Homo sapiens) [compound 248]
24,++ (20% = ++),249 (QQIDRVVEV; listed as Homo sapiens) [compound 249]
25,++ (20% = ++),250 (AARAPPQAL; listed as Homo sapiens) [compound 250]
26,++ (20% = ++),251 (DAAAFFKSV; listed as Homo sapiens) [compound 251]
